Laboratory results reported in patent publication CN111848800A (SANYOU BIOPHARMACEUTICALS CO LTD, dated 2020).

Tests used:
人PD-L1 (全长蛋白, on cells) [1] = target: T1, 人PD-L1 (全长蛋白, on cells) (human, UniProt Q9NZQ7 19-290); experiment: FACS on human PD-L1-CHO cells, PE anti-human IgG Fc
T1 construct: whole, on cells; also called 人PD-L1-CHO; PD-L1-CHO

[2] = target: T2, 鼠PD-L1 (全长蛋白, on CHO-s cells) (mouse, UniProt Q9EP73 19-290); experiment: FACS on mouse PD-L1-CHO cells, PE anti-human IgG Fc
T2 construct: whole, on cells; also called 小鼠PD-L1-CHO; 鼠PD-L1-CHO

[3] = target: T3, 恒河猴PD-L1 (全长蛋白, on CHO-s cells) (rhesus monkey, UniProt F6VEW6 19-290); experiment: FACS on monkey PD-L1-CHO cells
T3 construct: whole, on cells; also called 猴PD-L1-CHO

人PD-L1 (全长蛋白, on cells) [4] = target: T1, 人PD-L1 (全长蛋白, on cells); experiment: FACS competition on human PD-L1-CHO cells against biotin PD-1-Fc (1 μg/mL)
人PD-L1 (全长蛋白, on cells) [5] = target: T1, 人PD-L1 (全长蛋白, on cells); experiment: FACS competition on human PD-L1-CHO cells against biotin CD80 (1 μg/mL)
[6] = target: T4, B7-H4 recombinant protein (义翘神州 10738-H08H) (UniProt Q7Z7D3 25-258); experiment: ELISA, protein coated at 2 μg/mL, anti-human IgG Fc-HRP; N/A means 未检出结合活性
T4 sequence (looked up): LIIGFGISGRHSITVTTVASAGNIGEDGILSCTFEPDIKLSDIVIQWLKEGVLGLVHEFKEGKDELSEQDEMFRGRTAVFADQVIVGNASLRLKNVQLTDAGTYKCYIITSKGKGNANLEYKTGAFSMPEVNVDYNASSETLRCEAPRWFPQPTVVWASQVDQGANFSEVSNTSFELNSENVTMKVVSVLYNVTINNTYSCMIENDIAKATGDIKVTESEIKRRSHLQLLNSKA

[7] = target: T5, B7-H2 recombinant protein (义翘神州 11559-H08H) (UniProt O75144 19-258); experiment: as above
T5 sequence (looked up): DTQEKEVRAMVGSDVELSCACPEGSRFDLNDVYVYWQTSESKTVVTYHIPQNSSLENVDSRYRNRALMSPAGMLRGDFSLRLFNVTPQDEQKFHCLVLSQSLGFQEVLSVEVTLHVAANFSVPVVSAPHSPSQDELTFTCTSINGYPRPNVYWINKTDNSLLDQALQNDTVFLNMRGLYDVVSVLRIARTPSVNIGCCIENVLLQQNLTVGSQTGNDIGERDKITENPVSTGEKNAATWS

[8] = target: T6, B7-DC recombinant protein (义翘神州 10292-H08H-B) (UniProt Q9BQ51 20-219); experiment: as above
T6 sequence (looked up): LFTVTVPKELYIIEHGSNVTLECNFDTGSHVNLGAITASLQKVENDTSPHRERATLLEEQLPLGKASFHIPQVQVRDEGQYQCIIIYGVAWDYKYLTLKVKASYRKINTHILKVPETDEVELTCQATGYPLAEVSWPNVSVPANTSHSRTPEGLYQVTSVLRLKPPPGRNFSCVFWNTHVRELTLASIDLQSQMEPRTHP

[9] = target: T7, B7-H3 recombinant protein (义翘神州 11188-H08H) (UniProt Q5ZPR3 29-461); experiment: as above
T7 sequence (looked up): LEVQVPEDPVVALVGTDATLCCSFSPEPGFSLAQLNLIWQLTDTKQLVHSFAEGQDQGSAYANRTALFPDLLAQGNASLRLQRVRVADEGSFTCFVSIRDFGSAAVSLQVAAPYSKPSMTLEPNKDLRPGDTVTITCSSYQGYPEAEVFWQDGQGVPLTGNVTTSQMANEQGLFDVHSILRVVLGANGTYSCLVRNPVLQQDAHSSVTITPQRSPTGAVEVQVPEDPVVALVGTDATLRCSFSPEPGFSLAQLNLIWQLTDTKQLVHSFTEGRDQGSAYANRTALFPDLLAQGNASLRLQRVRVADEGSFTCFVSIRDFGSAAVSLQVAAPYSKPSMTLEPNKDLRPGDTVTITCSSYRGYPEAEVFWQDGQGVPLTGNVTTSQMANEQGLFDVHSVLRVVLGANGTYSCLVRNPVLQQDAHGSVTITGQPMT

T1 sequence (Q9NZQ7 19-290): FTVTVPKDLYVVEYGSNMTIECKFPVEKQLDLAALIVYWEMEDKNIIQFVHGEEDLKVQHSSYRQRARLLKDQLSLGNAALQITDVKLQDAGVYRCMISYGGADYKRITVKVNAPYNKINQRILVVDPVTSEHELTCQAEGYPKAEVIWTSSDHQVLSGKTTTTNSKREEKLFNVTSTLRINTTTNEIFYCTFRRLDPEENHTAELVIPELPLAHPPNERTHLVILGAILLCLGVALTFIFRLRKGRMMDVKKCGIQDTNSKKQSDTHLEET
T2 sequence (Q9EP73 19-290): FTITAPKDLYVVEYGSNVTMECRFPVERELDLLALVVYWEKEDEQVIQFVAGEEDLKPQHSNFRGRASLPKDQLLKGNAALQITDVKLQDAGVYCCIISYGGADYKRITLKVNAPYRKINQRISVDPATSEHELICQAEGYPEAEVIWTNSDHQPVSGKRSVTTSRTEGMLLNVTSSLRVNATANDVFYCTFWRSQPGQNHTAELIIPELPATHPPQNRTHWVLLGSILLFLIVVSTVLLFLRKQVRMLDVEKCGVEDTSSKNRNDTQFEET

B1: KN035 (Fc fusion)
chain: QVQLVESGGGLVQPGGSLRLSCAASGFTFSRRCKAWFRQAPGKERERVAKILTTSGSTYLADSVKGRFTISRDNSKNTVYLQMNSLRAEDTAVYYCAADSFEDPTCTLVTSSGAFQYWGQGTLVTVSS
notes: Control antibody made from the synthesised whole gene in ExpiCHO; the molecule is detected with anti-human IgG Fc; also called KN035(对照); 对照抗体KN035
B1 was tested, and the EC50 (人PD-L1 (全长蛋白, on cells) [1]) was 0.39 mg/L, the binding result [2] was “no binding (tested: 20μg/mL)” and the EC50 [3] was 0.21 mg/L. The IC50 (人PD-L1 (全长蛋白, on cells) [4]) was 0.39 mg/L, the IC50 (人PD-L1 (全长蛋白, on cells) [5]) was 0.631 mg/L and the binding result [6] was “no binding”. B1: no binding [7]; no binding [8]; no binding [9].
